Where two headings read alike, the source gives them in different places. One block for each binder: values may come before it.
Key:
hAng2 [1] = biological target: T1, hAng2; test: competition ELISA, blocking of hAng2 binding to hTie2
T1 construct: also called human Ang2
T1 chain: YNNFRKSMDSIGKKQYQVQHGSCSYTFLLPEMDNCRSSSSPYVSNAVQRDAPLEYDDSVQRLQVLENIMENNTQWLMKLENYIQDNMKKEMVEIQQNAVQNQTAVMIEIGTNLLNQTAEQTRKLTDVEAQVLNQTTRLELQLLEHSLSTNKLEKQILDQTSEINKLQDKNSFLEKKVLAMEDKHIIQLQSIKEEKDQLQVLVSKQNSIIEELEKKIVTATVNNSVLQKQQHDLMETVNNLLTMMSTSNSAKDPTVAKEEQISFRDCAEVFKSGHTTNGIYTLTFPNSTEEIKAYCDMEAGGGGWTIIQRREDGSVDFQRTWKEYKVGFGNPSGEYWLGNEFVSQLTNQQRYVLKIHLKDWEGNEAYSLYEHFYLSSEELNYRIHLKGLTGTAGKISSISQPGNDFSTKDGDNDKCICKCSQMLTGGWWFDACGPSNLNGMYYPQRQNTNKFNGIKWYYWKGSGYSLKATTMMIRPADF

mAng2 [2] = biological target: T2, mAng2; test: competition ELISA, blocking of mAng2 binding to mTie2
T2 construct: also called mouse Ang2
T2 chain: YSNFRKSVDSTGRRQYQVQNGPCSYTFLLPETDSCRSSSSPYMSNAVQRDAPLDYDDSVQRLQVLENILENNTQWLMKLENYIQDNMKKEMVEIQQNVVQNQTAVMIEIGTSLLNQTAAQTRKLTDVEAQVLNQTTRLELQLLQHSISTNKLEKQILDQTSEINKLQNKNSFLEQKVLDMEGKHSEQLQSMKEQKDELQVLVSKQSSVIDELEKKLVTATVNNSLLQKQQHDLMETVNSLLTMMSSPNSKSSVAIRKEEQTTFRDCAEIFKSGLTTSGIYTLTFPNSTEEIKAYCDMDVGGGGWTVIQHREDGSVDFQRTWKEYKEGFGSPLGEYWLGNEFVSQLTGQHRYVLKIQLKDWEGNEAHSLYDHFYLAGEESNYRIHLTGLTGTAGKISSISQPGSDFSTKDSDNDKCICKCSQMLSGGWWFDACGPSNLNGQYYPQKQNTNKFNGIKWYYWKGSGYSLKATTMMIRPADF

cAng2 [3] = biological target: T3, cAng2 (cynomolgus monkey); test: competition ELISA, blocking of cAng2 binding to cTie2
T3 construct: also called cyno Ang2

[4] = biological target: T4, recombinant human VEGF165 (human, UniProt P15692-4 27-191); test: ProteOn, periplasmic extract 1/10 on hVEGF165 chip
T4 construct: also called hVEGF165; rhVEGF165
Description: One additional variant is constructed in which the potential oxidation site at position M30 (CDR1 region, see FIG. 19 indicated as bold italic residue) is removed by introduction of a M30I mutation.

[5] = biological target: T4, recombinant human VEGF165; test: Biacore on VEGF165 (see Example 5.5)
Method: Samples are injected for 2 min and allowed to dissociate up to 20 min at a flow rate of 45 μI/min. In between sample injections, the chip surface is regenerated with 100 mM HCl. HBS-EP+(Hepes buffer pH7.4+EDTA) is used as running buffer. Binding curves are fitted using a Two State Reaction model by Biacore T100 Evaluation Software v2.0.1.
Affinity of VEGFBII032 is determined by Biacore (see Example 5.5) and the melting temperature is determined in the thermal shift assay as described above.

cAng2 [6] = biological target: T3, cAng2; test: competition ELISA, blocking of cAng2 binding to cTie2; remark: listed apart in the source
mAng2 [7] = biological target: T2, mAng2; test: competition ELISA, blocking of mAng2 binding to mTie2
hAng2 [8] = biological target: T1, hAng2; test: competition ELISA, blocking of hAng2 binding to hTie2
hAng2 [9] = biological target: T5, hAng2; test: competition ELISA hAng2/hTie2-Fc; blocked: hTie2-Fc
T5 construct: also called human Ang2
T5 chain: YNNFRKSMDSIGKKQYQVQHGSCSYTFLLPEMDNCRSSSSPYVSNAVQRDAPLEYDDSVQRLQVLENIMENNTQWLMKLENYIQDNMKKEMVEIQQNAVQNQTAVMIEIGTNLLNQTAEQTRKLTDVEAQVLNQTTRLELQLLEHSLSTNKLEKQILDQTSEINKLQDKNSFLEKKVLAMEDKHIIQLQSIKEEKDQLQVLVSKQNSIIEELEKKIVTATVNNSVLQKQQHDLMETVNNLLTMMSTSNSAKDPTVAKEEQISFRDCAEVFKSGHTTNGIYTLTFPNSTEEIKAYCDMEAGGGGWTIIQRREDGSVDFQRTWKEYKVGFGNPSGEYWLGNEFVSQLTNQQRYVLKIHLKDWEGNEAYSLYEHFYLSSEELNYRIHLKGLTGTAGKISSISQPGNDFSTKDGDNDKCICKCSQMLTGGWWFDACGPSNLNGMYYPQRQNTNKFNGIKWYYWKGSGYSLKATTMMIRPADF
Method: The human assay is also performed after incubation of the VHH with 0.5 μM human serum albumin. Additionally, a hAng2 mediated HUVEC survival assay is performed (see Example 5.5; FIG. 29).

T4 sequence (P15692 other isoform, or with tags, fused parts or gaps limits assumed): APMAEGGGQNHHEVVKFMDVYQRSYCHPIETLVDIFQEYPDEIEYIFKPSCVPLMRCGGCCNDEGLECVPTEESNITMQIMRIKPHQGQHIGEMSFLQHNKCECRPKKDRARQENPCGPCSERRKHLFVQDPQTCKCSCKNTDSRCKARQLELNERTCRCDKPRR

- IC50 (read off the curve) (hAng2 [1]): ~20 pM
- IC50 (read off the curve) (mAng2 [2]): ~30 pM
- IC50 (read off the curve) (cAng2 [3]): ~30 pM
B1: ANGBII00006 (VHH)
bivalent VHH: EVQLVESGGGLVQPGGSLRLSCAASGITLDDYAIGWFRQAPGKEREGVSSIRDNGGSTYYADSVKGRFTISSDNSKNTVYLQMNSLRPEDTAVYYCAAVPAGRLRYGEQWYPIYEYDAWGQGTLVTVSSGGGGSGGGSEVQLLESGGGLVQPGGSLRLSCAASGITLDDYAIGWFRQAPGKEREGVSSIRDNGGSTYYADSVKGRFTISSDNSKNTVYLQMNSLRPEDTAVYYCAAVPAGRLRYGEQWYPIYEYDAWGQGTLVTVSS
notes: homodimeric anti-Ang2 VHH; also called 00908-9gs-00908

- Binding level (RU) [4]: 242 RU
- koff [4]: 0.0615 s⁻¹
- Kd [5]: 32000 pM
B2: VEGFBII05B05 (VHH)
VHH: EVQLVESGGGLVQPGGSLRLSCVASGIRFMSMAWYRQAPGKHRELVARISSGGTTAYVDSVKGRFTISRDNSKNTVYLQMNSLKAEDTAVYYCNTFSSRPNPWGAGTQVTVSS
notes: also called VEGFBII5B05; VEGFBII5B05(wt)

- Kd [5]: 44000 pM
B3: VEGFBII032 (VHH)
VHH: EVQLVESGGGLVQPGGSLRLSCAASGIRFISMAWYRQAPGKQRELVARISSGGTTAYADSVKGRFTISRDNSKNTVYLQMNSLRAEDTAVYYCNTFSSRPNPWGQGTLVTVSS
notes: also called VEGFBII0032

- IC50 (read off the curve) (cAng2 [6]): ~30 pM
- IC50 (read off the curve) (mAng2 [7]): ~20 pM
- IC50 (read off the curve) (hAng2 [8]): ~10 pM
B4: ANGBII00001 (VHH)
bivalent VHH: EVQLVESGGGLVQAGGSLRLSCAASGFTFDDYALGWFRQAAGKEREGVSCIRCSDGSTYYADSVKGRFTISSDNAKNTVYLQMNSLKPEDTAVYYCAASIVPRSKLEPYEYDAWGQGTLVTVSSGGGGSGGGSEVQLVESGGGLVQAGGSLRLSCAASGFTFDDYALGWFRQAAGKEREGVSCIRCSDGSTYYADSVKGRFTISSDNAKNTVYLQMNSLKPEDTAVYYCAASIVPRSKLEPYEYDAWGQGTLVTVSS
notes: homodimeric anti-Ang2 VHH; also called 1D01-9gs-1D01

- IC50 (read off the curve) (hAng2 [9]): ~100 pM
B5: 7G08 (VHH)
VHH: EVQLVESGGGLVQPGGSLRLSCAASGFALDYYAIGWFRQVPGKEREGVSCISSSDGITYYVDSVKGRFTISRDNAKNTVYLQMNSLKPEDTAVYYCATDSGGYIDYDCMGLGYDYWGQGTQVTVSS

Source: patent publication US20170247475A1 (Boehringer Ingelheim, published 2017)
